A word on the KD: it is the concentration at which binding is half-saturated.

Here are results for one molecule from patent US20230082465A1 (Hoffmann-La Roche, published 2023).

One assay concerns the target T1, Fragment E (human, UniProt P02671 20-97; P02675 84-152; P02679 27-79, limits assumed).
T1 construct: domain: Fragment E
T1 sequence (looked up) 1: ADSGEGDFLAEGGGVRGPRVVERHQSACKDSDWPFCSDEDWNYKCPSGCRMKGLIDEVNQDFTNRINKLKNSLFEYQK
T1 sequence (looked up) 2: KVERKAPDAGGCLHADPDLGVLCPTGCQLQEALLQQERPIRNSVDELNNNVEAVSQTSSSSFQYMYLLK
T1 sequence (looked up) 3: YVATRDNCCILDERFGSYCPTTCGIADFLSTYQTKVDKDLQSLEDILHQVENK
Put plainly: BLI Octet, Example 4, FIG. 5. For orientation: In BLI a coated tip is dipped into the sample, and binding shifts an interference pattern.

Assay [1] has as its target T2, Fragment E from fibrinogen (UniProt P02671 20-97; P02675 84-152; P02679 27-79, limits assumed).
T2 construct: domain: Fragment E from fibrinogen; also called E (Fibrinogen)
T2 sequence (looked up) 1: T1 sequence (looked up) 1
T2 sequence (looked up) 2: T1 sequence (looked up) 2
T2 sequence (looked up) 3: T1 sequence (looked up) 3
Put plainly: BLI Octet Red96e, biotinylated antibody on streptavidin tips.

The target of another assay is T3, Fragment E from fibrin (UniProt P02671 36-97; P02675 84-152; P02679 27-88, limits assumed).
T3 construct: domain: Fragment E from fibrin; also called E (Fibrin)
T3 sequence (looked up) 1: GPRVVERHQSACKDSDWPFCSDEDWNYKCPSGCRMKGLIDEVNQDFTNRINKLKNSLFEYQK
T3 sequence (looked up) 2: T1 sequence (looked up) 2
T3 sequence (looked up) 3: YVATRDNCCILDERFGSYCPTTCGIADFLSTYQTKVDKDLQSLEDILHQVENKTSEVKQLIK
The description is as above.

A further assay deals with T4, Fibrinogen Fragment D (human, UniProt P02671 124-216; P02675 164-491; P02679 89-437, limits assumed).
T4 construct: domain: Fibrinogen Fragment D; Made in-house by digesting purified human fibrinogen with plasmin, then purified by SEC; also called fragment D from fibrinogen; D (Fibrinogen)
T4 sequence (looked up) 1: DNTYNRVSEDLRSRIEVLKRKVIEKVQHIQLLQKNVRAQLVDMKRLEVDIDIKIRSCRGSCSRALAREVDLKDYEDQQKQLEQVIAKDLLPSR
T4 sequence (looked up) 2: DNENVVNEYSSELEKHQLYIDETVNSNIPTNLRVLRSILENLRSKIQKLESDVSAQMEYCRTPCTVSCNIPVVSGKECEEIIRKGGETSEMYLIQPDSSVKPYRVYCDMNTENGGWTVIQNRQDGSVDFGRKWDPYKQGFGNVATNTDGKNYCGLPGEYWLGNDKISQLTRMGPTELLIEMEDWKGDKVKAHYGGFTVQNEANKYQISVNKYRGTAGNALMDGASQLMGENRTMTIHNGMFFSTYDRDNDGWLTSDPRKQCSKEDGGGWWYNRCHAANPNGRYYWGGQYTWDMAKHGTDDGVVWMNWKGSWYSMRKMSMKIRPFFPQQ
T4 sequence (looked up) 3: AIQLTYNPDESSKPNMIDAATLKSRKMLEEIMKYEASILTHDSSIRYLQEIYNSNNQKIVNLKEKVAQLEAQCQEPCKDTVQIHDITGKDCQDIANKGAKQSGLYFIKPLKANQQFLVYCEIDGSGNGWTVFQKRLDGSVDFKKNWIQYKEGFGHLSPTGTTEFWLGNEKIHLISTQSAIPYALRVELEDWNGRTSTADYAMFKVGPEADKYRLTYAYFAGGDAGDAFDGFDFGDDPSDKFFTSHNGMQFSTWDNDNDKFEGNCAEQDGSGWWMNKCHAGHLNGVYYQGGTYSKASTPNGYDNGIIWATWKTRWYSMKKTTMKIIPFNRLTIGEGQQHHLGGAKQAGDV
Put plainly: BLI Octet Red96e, biotinylated antibody on streptavidin tips; KD grade + = >=10^-8 M. The procedure:
(§1) The same set of mAbs were subjected to binding studies with fibrinogen, D-Dimer, and purified fibrin and fibrinogen fragments (see Table 2) using the BLI Octet Red96e system from Sartorius. KD was measured by loading biotinylated antibody samples on streptavidin BLI tips and introducing serial dilutions of prepared fragments. […] The experiments were conducted at room temperature and pressure.

A further assay deals with T5, Fibrinogen Fragment X (human, UniProt P02671 20-238; P02675 73-491; P02679 27-437, limits assumed).
T5 construct: domain: Fibrinogen Fragment X; Made in-house by digesting purified human fibrinogen with plasmin, then purified by SEC; also called X (Fibrinogen)
T5 sequence (looked up) 1: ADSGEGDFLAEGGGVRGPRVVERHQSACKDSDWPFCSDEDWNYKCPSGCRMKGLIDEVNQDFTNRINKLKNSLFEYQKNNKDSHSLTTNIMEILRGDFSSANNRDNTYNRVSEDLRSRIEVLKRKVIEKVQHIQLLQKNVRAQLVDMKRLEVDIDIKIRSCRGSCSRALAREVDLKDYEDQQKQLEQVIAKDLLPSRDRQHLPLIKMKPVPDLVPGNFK
T5 sequence (looked up) 2: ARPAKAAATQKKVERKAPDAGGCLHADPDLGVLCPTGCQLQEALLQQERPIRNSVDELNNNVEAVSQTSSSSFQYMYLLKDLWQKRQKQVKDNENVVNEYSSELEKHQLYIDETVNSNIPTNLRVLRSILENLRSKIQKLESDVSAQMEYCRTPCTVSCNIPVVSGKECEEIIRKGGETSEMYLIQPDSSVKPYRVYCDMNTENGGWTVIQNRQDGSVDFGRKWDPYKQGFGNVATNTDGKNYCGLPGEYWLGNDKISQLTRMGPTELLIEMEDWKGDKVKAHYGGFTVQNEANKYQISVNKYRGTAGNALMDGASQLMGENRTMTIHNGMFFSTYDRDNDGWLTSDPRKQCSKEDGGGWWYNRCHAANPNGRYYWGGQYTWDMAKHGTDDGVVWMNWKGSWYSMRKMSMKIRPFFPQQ
T5 sequence (looked up) 3: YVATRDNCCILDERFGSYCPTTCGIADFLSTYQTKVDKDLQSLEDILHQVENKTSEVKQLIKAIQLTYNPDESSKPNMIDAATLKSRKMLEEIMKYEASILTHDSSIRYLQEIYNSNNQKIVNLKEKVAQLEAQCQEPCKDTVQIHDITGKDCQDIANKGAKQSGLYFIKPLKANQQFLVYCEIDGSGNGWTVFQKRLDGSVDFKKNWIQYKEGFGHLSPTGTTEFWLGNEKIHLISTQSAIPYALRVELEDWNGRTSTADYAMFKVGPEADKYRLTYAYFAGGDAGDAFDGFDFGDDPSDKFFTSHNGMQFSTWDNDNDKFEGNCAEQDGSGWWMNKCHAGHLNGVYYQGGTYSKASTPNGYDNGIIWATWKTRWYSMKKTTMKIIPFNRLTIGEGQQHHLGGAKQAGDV
The description is as above. The procedure: as §1

The next assay deals with T6, Fibrinogen Fragment Y (human, UniProt P02671 20-225; P02675 73-491; P02679 27-437, limits assumed).
T6 construct: domain: Fibrinogen Fragment Y; Made in-house by digesting purified human fibrinogen with plasmin, then purified by SEC; also called Y (Fibrinogen)
T6 sequence (looked up) 1: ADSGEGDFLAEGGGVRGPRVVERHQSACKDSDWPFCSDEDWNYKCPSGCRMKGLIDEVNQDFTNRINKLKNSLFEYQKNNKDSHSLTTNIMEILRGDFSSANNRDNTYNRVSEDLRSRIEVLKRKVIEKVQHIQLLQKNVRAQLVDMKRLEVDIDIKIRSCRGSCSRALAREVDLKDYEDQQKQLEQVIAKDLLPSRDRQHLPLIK
T6 sequence (looked up) 2: T5 sequence (looked up) 2
T6 sequence (looked up) 3: T5 sequence (looked up) 3
The description is as above. The procedure: as §1

B1: recombinant antibody #12 (antibody, V domains shown)
VH: QVQLQQPGAEVVRPGASVKLSCKASGYSFTSYWIHWLKQGPHQGLEWIGRIDPDDSETHYNQKFKDKALLTVDKSSSTAYMQLRSLTSEDSAVYYCARTNWDAWFAYWGQGTLVTVSA
VL: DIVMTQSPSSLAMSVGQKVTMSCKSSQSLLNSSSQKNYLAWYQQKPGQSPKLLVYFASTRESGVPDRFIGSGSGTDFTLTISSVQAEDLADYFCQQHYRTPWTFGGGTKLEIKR
notes: The heavy chain is truncated after the murine IgG2a hinge and has no Fc; also called Ab#12; Ab#12 (Grifols)
For the molecule B1, the binding result (in the assay with Fragment E; in assay [1]; in the assay with Fragment E from fibrin) was “no binding” throughout. The KD with Fibrinogen Fragment D, in the assay with Fibrinogen Fragment X and with Fibrinogen Fragment Y was no less than 10 nM throughout.
